The source of these data is the supplement of paper PMC10567573.

± gives the standard deviation.

The data set in a line: protein stability index of a GFP-peptide fusion (GPS, HEK-293T) (PSI 1-6); higher = more stable.
The mark [1] stands for this setting: treatment: DMSO, c terminus: a fixed tail appended.
The mark [2] stands for this setting: treatment: MLN4924 1 uM, 8 h, c terminus: a fixed tail appended.
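Also: 24-mer peptide tiles fused after GFP, lentivirally expressed, FACS-sorted into six equal bins by GFP/DsRed ratio, decoded by Illumina sequencing, PSI is the read-weighted mean bin number.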

On to GTPSPSRSRDSNSGPEEPLLEEEE [RTN2], for which the protein stability index reads like this: under setting [1], 5.49 ± 0.24; under setting [2], 5.72 ± 0.27.
Taken in the same sequence, the figures for ELFVREPTGRLPALVRWWNGIGAV [MYORG] were 2.26 ± 0.38 and 2.4 ± 0.41.
The like results for SELQREMEALAAETNLLLAQKQRL [TEKT4] were, in that order, 4 ± 0.53 and 4.2 ± 0.13.
The like results for TWYLKTIDICHDHFGWYLGWGDCV [DHCR7] were, in that order, 3.01 ± 0.34 and 3.1 ± 0.53.
Take ASVAMICAIASGSELSESAFGYFI [SLC29A1]: the protein stability index under setting [1] is 2.94 ± 0.68 and the protein stability index under setting [2] came out at 2.48 ± 0.52.
Taken in the same sequence, the figures for LSTADGKAFADPEVLRRLTSSVSC [ANKRD17] were 3.55 ± 0.17 and 3.69 ± 0.29.
IETGENVTGMELEFKRLASSKAHT [PTPRD]: the protein stability index stood at 4.35 ± 0.12 under setting [1] and 4.33 ± 0.29 under setting [2].
With LSEGSSNEDEDLGPCEGPSKEDKD [SPANXN3], the protein stability index worked out at 5.71 ± 0.31 under setting [1] and 5.37 ± 0.41 under setting [2].
Taken in the same sequence, the figures for NVNRTTANNDHTVLSLACAGGHLA [ANKRD17] were 3.57 ± 0.3 and 3.7 ± 0.36.
The like results for RLASYLDKVRALEEANADLEVKIH [KRT15] were, in that order, 2.33 ± 0.15 and 2.67 ± 0.22.
The like results for FDLNNLDPELKNLFDMCGISEAQL [WASL] were, in that order, 2.62 ± 0.55 and 2.83 ± 0.69.
Consider TGGVTALCWDPVQRVLFSGSSDHS [WDFY2], for which the protein stability index is 2.73 ± 0.21 under setting [1] and 2.78 ± 0.59 under setting [2].
Take PRPRPVSLSLRLPHQPVTAITRVS [SMTNL2]: the protein stability index is, setting by setting: under setting [1], 3.42 ± 0.24; under setting [2], 3.58 ± 0.27.
Taken in the same sequence, the figures for SEGEAMEICSEPVAASPAPAGERR [ZNF511] were 5.38 ± 0.28 and 5.22 ± 0.27.
The like results for IRRPRLYLLQWLKSDKALMMLFND [PLK2] were, in that order, 2.58 ± 0.48 and 2.75 ± 0.26.
The like results for NGQLMAVGGFDGTTYLKTIEVFDP [KLHL20] were, in that order, 2.93 ± 0.072 and 2.91 ± 0.45.
In the case of DDIVSGRLPCSFVTLALLGSYTVQ [EPB41L3], the protein stability index is 2.72 ± 0.44 under setting [1] and 2.53 ± 0.53 under setting [2].
As to QYLAERYKVNTPMLQSFINYCLLF [SLC35F2], the protein stability index by setting is: under setting [1], 2.58 ± 0.6; under setting [2], 2.64 ± 0.53.
The like results for YHRETEGEEQSQYMHVGSCQHLSS [KCNA3] were, in that order, 4.09 ± 0.32 and 4.71 ± 0.47.
Take QLKWASWELHSLRHCDDDGRTENG [ZNF24]: the protein stability index under setting [1] turned out to be 3.83 ± 0.31 and the protein stability index under setting [2] was 4.04 ± 0.21.
VILFSSAVYFAEADDPTSGFSSIP [KCNA3]: the protein stability index came to 3.01 ± 1.6 under setting [1] and 2.56 ± 1.1 under setting [2].
Taken in the same sequence, the figures for VFVLIDEVESLTAARNACRAGTEP [TRIP13] were 2.35 ± 0.2 and 2.63 ± 0.36.
Taken in the same sequence, the figures for TLCKADLEAQVESLKEELMCLKKN [KRT36] were 3.51 ± 0.4 and 3.83 ± 0.15.
The like results for IIYPRQQLLTLRELEMIGFIENNV [TRIP13] were, in that order, 2.6 ± 0.37 and 2.26 ± 0.22.
For the sequence FVGDLSPEITTEDIKAAFAPFGRI [TIA1], the protein stability index runs as follows: under setting [1], 3.11 ± 1; under setting [2], 2.7 ± 0.18.
Taken in the same sequence, the figures for MDDERYFNEMSAQGLRPRTVSSPI [CCDC6] were 4.28 ± 0.29 and 4.16 ± 0.14.
Take FSASERLSLKRELSWYRGRRPRTA [HESX1]: the protein stability index amounted to 2.7 ± 0.28 under setting [1] and 3.22 ± 0.32 under setting [2].
Taken in the same sequence, the figures for ILPKELQAWVQKHHPENGEETVTM [ZNF396] were 3.5 ± 0.07 and 3.58 ± 0.29.
The like results for KQRGYFFLDERLYCESHAKARVKP [PDLIM4] were, in that order, 2.81 ± 0.64 and 3.11 ± 0.38.
Taken in the same sequence, the figures for NHILECEFYLLELMDCCLIVYHPY [CCNC] were 3.12 ± 1 and 2.78 ± 0.95.
As to SPSENSKEAEILEVLRHPRDWVR [CPOX], the protein stability index reads like this: (treatment: DMSO, c terminus: native) 4.42 ± 0.15; (treatment: MLN4924 1 uM, 8 h, c terminus: native) 4.53 ± 0.26.
Regarding GVPVQPVLIRYPNSLDTTSWAWRG [LPCAT4], the protein stability index reads like this: under setting [1], 2.28 ± 0.26; under setting [2], 2.34 ± 0.31.
Taken in the same sequence, the figures for SLIGHLQTLSPDMQGAYCTFPASV [DUSP5] were 2.07 ± 0.35 and 2.2 ± 0.38.
Taken in the same sequence, the figures for LSIYVGCDKYPHESQLPEEWENNR [CPXM2] were 2.98 ± 0.13 and 3.25 ± 0.4.
Taken in the same sequence, the figures for RDLKPENILVTSGGTVKLADFGLA [CDK4] were 3.31 ± 0.44 and 3.33 ± 0.27.
For the sequence RPHGIFGPRDPQLVPILIEAARNG [NSDHL], the protein stability index came to 2.91 ± 0.34 under setting [1] and 3.04 ± 0.24 under setting [2].
Taken in the same sequence, the figures for GVAVGDWVLSIDGENAGSLTHIEA [PDLIM7] were 3.03 ± 0.5 and 2.96 ± 0.36.
The like results for KRKRVKQRINTYVFVGNQLIPQPL [PCMTD1] were, in that order, 2.38 ± 0.17 and 2.73 ± 0.35.
The like results for LYGALNPQYEFKEAAGSFTSSLAQ [IRX6] were, in that order, 2.64 ± 0.17 and 2.55 ± 0.27.
Consider VVYSKAASVPKVETVKSDNKDDDI [EIF5], for which the protein stability index is, setting by setting: under setting [1], 5.23 ± 0.13; under setting [2], 5.19 ± 0.11.
The like results for EPNNIVVLLQTSPYHVDSLLQLSD [TCF25] were, in that order, 2.44 ± 0.3 and 2.11 ± 0.26.
Taken in the same sequence, the figures for LVVFTASMEIYGSAVADKLDNSRS [CTDNEP1] were 2.92 ± 0.74 and 2.26 ± 0.37.
Taken in the same sequence, the figures for FIEIELDRQELTYQELLRVCCCEL [ANKRD40] were 2.67 ± 0.61 and 2.67 ± 0.66.
In the case of MQPESGANGTVIAEFILLGLLEAP [OR3A1], the protein stability index by setting is: under setting [1], 2.18 ± 0.24; under setting [2], 2.33 ± 0.42.
The like results for FSFRYQQELEEEIKELYENFCKHN [ATL3] were, in that order, 2.57 ± 0.38 and 2.86 ± 0.44.
As for EQIGHILVSWLPRLNAYRGYCSNQ [NET1], the protein stability index reads like this: under setting [1], 2.67 ± 0.51; under setting [2], 2.65 ± 0.18.
The like results for TSTVNSAREELMESRMRIESLSSQ [LMNB1] were, in that order, 4.54 ± 0.15 and 4.51 ± 0.18.
Turning to RGPLNSDRSDYFAAWGARVFSFGK [TRIM43], the protein stability index reads like this: under setting [1], 2.79 ± 0.22; under setting [2], 2.76 ± 0.22.
Taken in the same sequence, the figures for QPVDAIKLNLPDYHKIIKNPMDMG [BRD3] were 3.12 ± 0.35 and 2.92 ± 0.23.
Taken in the same sequence, the figures for LQLGEGVEFDVLPAFDALGQLTGG [OAS1] were 2.37 ± 0.35 and 2.72 ± 0.51.
Taken in the same sequence, the figures for RSSVSRVFDCLKDGMRNKETLEGR [MED27] were 4.27 ± 0.34 and 4.38 ± 0.47.
For the sequence CARMLYNYGADTNTRNYEGQTPLA [ASB7], the protein stability index under setting [1] was determined as 2.63 ± 0.28 and the protein stability index under setting [2] was 2.62 ± 0.36.
Take DLTASHDAALLEMENNHTVAITIL [MTUS2]: the protein stability index stood at 2.86 ± 0.21 under setting [1] and 2.85 ± 0.25 under setting [2].
Turning to PSPEPAGRRAALYVHWPYCEKRCS [RSAD1], the protein stability index was 2.78 ± 0.26 under setting [1] and 3.02 ± 0.41 under setting [2].
As to VKGRVRCLTAGPEVAAQLPAVRQL [ZSWIM9], the protein stability index reads like this: under setting [1], 3.19 ± 0.18; under setting [2], 3.12 ± 0.43.
In the case of LYPDLSCPEGLEELLSAPPPDLGA [SPSB2], the protein stability index was found to be 4.27 ± 0.14 under setting [1] and 4.46 ± 0.12 under setting [2].
Consider KSGEGFIDFIGQVHKTKEQFGQDG [PTPRD], for which the protein stability index is, setting by setting: under setting [1], 4.24 ± 0.49; under setting [2], 4.23 ± 0.17.
In the case of DFLMCYSVAEGYYSHRETVNGSWY [CASP6], the protein stability index runs as follows: under setting [1], 2.88 ± 0.8; under setting [2], 2.86 ± 0.79.
The like results for GPGEPDVRDGFSATFEKILESELL [PSD2] were, in that order, 3.91 ± 0.25 and 4.03 ± 0.34.
The like results for YDFMNSAFSPIVILTERVSLPFKP [MIA2] were, in that order, 2.22 ± 0.62 and 2.17 ± 0.18.
The like results for IRAMGRLKIDFGDSARADDARQLF [GNAI1] were, in that order, 2.63 ± 0.25 and 2.77 ± 0.14.
In the case of PNILFYASTVLKSVGFQSNEAASL [SLC2A12], the protein stability index under setting [1] came to 2.25 ± 0.33 and the protein stability index under setting [2] amounted to 2.38 ± 0.15.
